In US10919953 (dated 2021) one finds Kd data, which are given here for 31 molecules.

Positions count from the first letter of the chain named.

B1: IL6R-BP338/IL6R-L (antibody)
chain 1: QVQLQESGPGLVKPSETLSLTCAVSGHSISHDHAWSWVRQPPGEGLEWIGFISYSGITNYNPSLQGRVTISRDNSKNTLYLQMNSLRAEDTAVYYCARSLARTTAMDYWGEGTLVTVSSASTKGPSVFPLAPSSKSTSGGTAALGCLVKDYFPEPVTVSWNSGALTSGVHTFPAVLQSSGLYSLSSVVTVPSSSLGTQTYICNVNHKPSNTKVDKKVEPKSCDKTHTCPPCPAPDLLGDDSVFLFPPKPKDTLMISRTPEVTCVVLDVSEEDGEVKFNWYVDGVEVHNAKTKPREEQYNSTYRVVSVLTVLHQDWLNGKEYKCKVSNKALPAPIEKTISKAKGQPREPQVYTLPPSRDELTKNQVSLTCLVKGFYPSDIAVEWESNGQPENNYKTTPPVLDSDGSFFLYSKLTVDKSRWQQGNVFSCSVMHEALHNHYTQESLSLSP
chain 2: not shown
B2: IL6R-BP333/IL6R-L (antibody)
chain 1: B1 chain 1 with L266F
chain 2: not shown
B3: IL6R-BP300/IL6R-L (antibody)
chain 1: B1 chain 1 with V264I, L266V
chain 2: not shown
B4: IL6R-BP339/IL6R-L (antibody)
chain 1: B1 chain 1 with L266M
chain 2: not shown
B5: IL6R-BP257/IL6R-L (antibody)
chain 1: B1 chain 1 with S126E, L266V, E270D, A332R
chain 2: not shown
B6: IL6R-AP002/IL6R-BP257/IL6R-L (antibody)
chain 1: B1 chain 1 with L266V, E270D, A332R, D358K, H437R, E441K
chain 2: B1 chain 1 with S126E, L266V, E270D, A332R
chain 3: not shown
B7: IL6R-BP256/IL6R-L (antibody)
chain 1: B1 chain 1 with S126D, L266V, E270D, A332R
chain 2: not shown
B8: IL6R-BP208/IL6R-L (antibody)
chain 1: B1 chain 1 with L266V, E270D, A332R
chain 2: not shown
B9: IL6R-BP259/IL6R-L (antibody)
chain 1: B1 chain 1 with S126D, L266V, E270D, Y298D, A332R
chain 2: not shown
B10: IL6R-AP009/IL6R-BP259/IL6R-L (antibody)
chain 1: B1 chain 1 with L266V, E270D, Y298D, A332R, D358K, H437R, E441K
chain 2: B1 chain 1 with S126D, L266V, E270D, Y298D, A332R
chain 3: not shown
B11: IL6R-AP009/IL6R-BP260/IL6R-L (antibody)
chain 1: B1 chain 1 with L266V, E270D, Y298D, A332R, D358K, H437R, E441K
chain 2: B1 chain 1 with S126E, L266V, E270D, Y298D, A332R
chain 3: not shown
B12: IL6R-AP002/IL6R-BP256/IL6R-L (antibody)
chain 1: B1 chain 1 with L266V, E270D, A332R, D358K, H437R, E441K
chain 2: B1 chain 1 with S126D, L266V, E270D, A332R
chain 3: not shown
B13: IL6R-AP029/IL6R-BP410/IL6R-L (antibody)
chain 1: B1 chain 1 with L266V, Y298D, A332R, D358K, H437R, E441K
chain 2: B1 chain 1 with L237T, L266V, Y298D, A332R
chain 3: not shown
B14: IL6R-BP404/IL6R-L (antibody)
chain 1: B1 chain 1 with L236Y, L266V, Y298D, A332R
chain 2: not shown
B15: IL6R-BP419/IL6R-L (antibody)
chain 1: B1 chain 1 with L237F, L266V, Y298D, A332R
chain 2: not shown
B16: IL6R-AP029/IL6R-BP409/IL6R-L (antibody)
chain 1: B1 chain 1 with L266V, Y298D, A332R, D358K, H437R, E441K
chain 2: B1 chain 1 with L237E, L266V, Y298D, A332R
chain 3: not shown
B17: IL6R-AP029/IL6R-BP407/IL6R-L (antibody)
chain 1: B1 chain 1 with L266V, Y298D, A332R, D358K, H437R, E441K
chain 2: B1 chain 1 with L237D, L266V, Y298D, A332R
chain 3: not shown
B18: IL6R-BP408/IL6R-L (antibody)
chain 1: B1 chain 1 with L237Q, L266V, Y298D, A332R
chain 2: not shown
B19: IL6R-AP029/IL6R-BP408/IL6R-L (antibody)
chain 1: B1 chain 1 with L266V, Y298D, A332R, D358K, H437R, E441K
chain 2: B1 chain 1 with L237Q, L266V, Y298D, A332R
chain 3: not shown
B20: IL6R-BP237/IL6R-L (antibody)
chain 1: B1 chain 1 with L236Y, L266V, S269Q, E270D, Y298D, K328A, A332K
chain 2: not shown
B21: IL6R-BP228/IL6R-L (antibody)
chain 1: B1 chain 1 with D235E, L236Y, L266V, S269Q, E270D, K328D, A332R
chain 2: not shown
B22: IL6R-BP239/IL6R-L (antibody)
chain 1: B1 chain 1 with L236Y, L266V, S269Q, E270D, Y298D, K328A, A332R
chain 2: not shown
B23: IL6R-BP267/IL6R-L (antibody)
chain 1: B1 chain 1 with L266V
chain 2: not shown
B24: IL6R-BP264/IL6R-L (antibody)
chain 1: B1 chain 1 with L266V, Y298D, A332R
chain 2: not shown
B25: IL6R-BP260/IL6R-L (antibody)
chain 1: B1 chain 1 with S126E, L266V, E270D, Y298D, A332R
chain 2: not shown
B26: IL6R-BP225/IL6R-L (antibody)
chain 1: B1 chain 1 with D235E, L236Y, L266V, E270H, G273P, K328D, A332R
chain 2: not shown
B27: IL6R-BP249/IL6R-L (antibody)
chain 1: B1 chain 1 with L236Y, L266V, E270D, Y298D, A332R
chain 2: not shown
B28: IL6R-BP233/IL6R-L (antibody)
chain 1: B1 chain 1 with D235E, L236Y, L266V, E270H, A332K
chain 2: not shown
B29: IL6R-BP243/IL6R-L (antibody)
chain 1: B1 chain 1 with L236Y, L266V, E270D, A332R
chain 2: not shown
B30: IL6R-BP246/IL6R-L (antibody)
chain 1: B1 chain 1 with L266V, S269Q, E270D, Y298D, K328A, A332R
chain 2: not shown
B31: IL6R-BP220/IL6R-L (antibody)
chain 1: B1 chain 1 with L266V, E270D, Y298D, A332K
chain 2: not shown

One assay addresses T1, FcgRIIb (human, UniProt P31994).
T1 chain: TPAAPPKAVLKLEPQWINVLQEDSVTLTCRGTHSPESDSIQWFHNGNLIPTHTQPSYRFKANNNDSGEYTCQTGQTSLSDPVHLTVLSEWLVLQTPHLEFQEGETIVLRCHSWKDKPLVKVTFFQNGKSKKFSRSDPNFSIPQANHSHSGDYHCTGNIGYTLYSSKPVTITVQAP
The experiment in a line: SPR. In general terms: Surface plasmon resonance follows binding to a sensor surface in real time, without labels.
As to B1, the Kd (in general, the concentration at which binding is half-saturated) stood at 150 nM.

B2 came in with a Kd of 120 nM. This Kd and that of the molecule before are within 1.5-fold of each other.

For the molecule B3, the Kd was found to be 58 nM.

B4 yielded a Kd of 130 nM.

Another assay concerns the target T2, FcgRIIaR (human, UniProt P12318).
T2 chain: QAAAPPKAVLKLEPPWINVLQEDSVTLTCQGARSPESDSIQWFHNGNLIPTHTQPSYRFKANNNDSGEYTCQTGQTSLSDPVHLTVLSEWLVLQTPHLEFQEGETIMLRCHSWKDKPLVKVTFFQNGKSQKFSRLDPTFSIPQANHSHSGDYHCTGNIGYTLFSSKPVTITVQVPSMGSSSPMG
The experiment in a line: SPR.
B5 showed an equilibrium dissociation constant (Kd) of 1300 nM.

Molecule B6 had a Kd of 130 nM.

Regarding B7, the Kd was determined as 730 nM.

Regarding B8, the Kd came out at 850 nM.

Turning to B9, the Kd amounted to 860 nM.

Regarding B10, the Kd came out at 190 nM.

Take B11: the Kd was 140 nM. The Kd values of the last two molecules are within 1.5-fold of each other.

For the molecule B12, the Kd was determined as 140 nM.

Another assay concerns the target T3, FcgRIIaH (human, UniProt P12318).
T3 chain: T2 chain with R134H
The experiment in a line: SPR.
For B6, binding was characterised by a dissociation constant (Kd) of 4900 nM.

In turn, B10 returned a Kd of 6600 nM.

Molecule B11 registered a Kd of 5400 nM.

B12: the Kd came out at 4200 nM. This Kd and that of the molecule before are within 1.5-fold of each other.

The target in another assay is T2, FcgRIIaR. The experiment in a line: SPR. This is another data set of the same source.
B1 showed a dissociation constant (Kd) of 2200 nM.

B2: binding was put at a Kd of 1500 nM.

Regarding B3, binding was characterised by a dissociation constant (Kd) of 690 nM.

As for B4, binding was characterised by a dissociation constant (Kd) of 1400 nM.

For a further assay, the target named is T2, FcgRIIaR. The experiment in a line: SPR. This is another data set of the same source.
For the molecule B13, the Kd amounted to 660 nM.

B14 came in with a Kd of 360 nM.

For B15, the Kd was 830 nM.

In turn, B16 registered a dissociation constant Kd of 630 nM.

Take B17: binding was put at a Kd of 630 nM.

In turn, B18 registered a Kd of 34000 nM. This Kd lies about 54-fold higher than the previous one.

For the molecule B19, the dissociation constant Kd amounted to 860 nM.

Another assay has as its target T1, FcgRIIb. The experiment in a line: SPR. The source holds these as a separate data set.
For the molecule B20, the Kd was 100 nM.

In turn, B21 yielded a Kd of 40 nM.

Molecule B22 yielded a Kd of 60 nM.

Another assay has as its target T4, FcgRIa (human, UniProt P12314).
T4 chain: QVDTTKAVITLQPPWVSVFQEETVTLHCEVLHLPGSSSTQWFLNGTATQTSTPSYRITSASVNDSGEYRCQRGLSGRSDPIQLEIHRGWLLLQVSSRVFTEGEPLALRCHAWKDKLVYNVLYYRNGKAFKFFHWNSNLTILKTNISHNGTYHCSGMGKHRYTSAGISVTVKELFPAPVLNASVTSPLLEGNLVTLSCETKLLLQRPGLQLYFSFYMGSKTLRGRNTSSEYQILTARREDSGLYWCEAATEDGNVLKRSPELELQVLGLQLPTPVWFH
The experiment in a line: SPR.
The molecule B1 registered a dissociation constant Kd of 15 nM.

Consider B2, for which the affinity, expressed as Kd, was 9.1 nM.

Molecule B3 displayed a Kd of 9.6 nM. This Kd and that of the molecule before are within 1.5-fold of each other.

Regarding B4, the Kd came out at 4.6 nM.

B23 had a Kd of 4 nM.

The target of another assay is T4, FcgRIa. The experiment in a line: SPR. The source holds these as a separate data set.
For B13, the dissociation constant Kd came to 17 nM.

The molecule B14 gave a Kd of 10 nM.

B15 showed a Kd of 40 nM.

Consider B16, for which the affinity, expressed as Kd, was 19 nM. Against the preceding molecule, the Kd is about 2.1-fold lower.

B17 gave a Kd of 13 nM.

Molecule B18 registered a Kd of 140 nM.

B24: the affinity, expressed as Kd, was 7.4 nM. This Kd lies about 19-fold lower than the previous one.

B19 displayed a Kd of 20 nM.

The target of a further assay is T1, FcgRIIb. The experiment in a line: SPR. This is another data set of the same source.
As for B13, binding was characterised by a dissociation constant (Kd) of 22 nM. This counts as double-digit nanomolar.

In turn, B14 had a Kd of 11 nM.

In turn, B15 had a Kd of 26 nM. Compared with the last molecule, the Kd is about 2.4-fold higher.

For the molecule B16, the Kd is 15 nM.

B17 yielded a Kd of 19 nM.

For the molecule B18, binding was put at a Kd of 720 nM.

Turning to B19, binding was characterised by a dissociation constant (Kd) of 26 nM.

Another assay addresses T4, FcgRIa. The experiment in a line: SPR. This is another data set of the same source.
In turn, B5 gave a Kd of 0.31 nM.

With B6, the Kd was 1.9 nM.

Consider B7, for which the Kd was found to be 2 nM.

As to B25, the Kd came out at 0.31 nM.

Molecule B9 yielded an equilibrium dissociation constant (Kd) of 3.1 nM.

B10: the Kd was found to be 3.5 nM.

The molecule B11 returned a dissociation constant (Kd) of 1.7 nM.

In the case of B12, the equilibrium dissociation constant (Kd) was found to be 3.6 nM.

The next assay has as its target T4, FcgRIa. The experiment in a line: SPR. This is another data set of the same source.
B26 showed a Kd of 65 nM.

As to B27, the Kd amounted to 7 nM.

B28 gave a Kd of 70 nM.

Consider B29, for which the Kd was 3 nM.

Consider B30, for which the Kd came out at 8 nM.

Turning to B31, the Kd stood at 20 nM.

In the next assay the target is T1, FcgRIIb. The experiment in a line: SPR. The source holds these as a separate data set.
Consider B5, for which the Kd worked out at 430 nM.

For B6, binding was put at a Kd of 4.7 nM.

The molecule B7 displayed a Kd of 87 nM.

For B25, the Kd amounted to 380 nM.

B9 registered a Kd of 110 nM.

In turn, B10 displayed a Kd of 3.9 nM.

In turn, B11 came in with a Kd of 4.2 nM. This Kd and that of the molecule before are within 1.5-fold of each other.

The molecule B12 gave a Kd of 4.1 nM. The Kd values of the last two molecules are within 1.5-fold of each other.
